The source of these data is paper PMC10569793.

Assay [1] deals with complex V (D. melanogaster), monomer (D. melanogaster (endogenous in fly mitochondria)). Briefly: native gel or EMSA; BN-PAGE (NativePAGE 3-12% Bis-Tris) of wild-type fly mitochondria solubilised with 4 mg digitonin per mg protein; Coomassie stain and in-gel activity of CI and CIV.
Assay [2] shares this target. Briefly: native gel or EMSA; complexome profiling: wild-type fly mitochondria solubilised with 6 g digitonin/g protein (50 mM NaCl, 5 mM 6-aminohexanoic acid, 1 mM EDTA, 50 mM imidazole/HCl pH 7.0), 4-16% gradient BN-PAGE, lane cut into 60 slices, LC-MS/MS, label-free quantification.
Assay [3] has as its target mitochondrial respiratory chain complex IV (D. melanogaster) (D. melanogaster (endogenous in fly mitochondria)). Briefly: native gel or EMSA; BN-PAGE (NativePAGE 3-12% Bis-Tris) of mitochondria solubilised with 4 mg DDM per mg protein; Coomassie, in-gel activity, western blot of subunits; wild-type, Coa8 KO, Coa8 RNAi, strong Bcs1 RNAi and Ndufs4 RNAi flies or larvae with their controls.

Assay [4] has the same target. Briefly: native gel or EMSA; BN-PAGE (NativePAGE 3-12% Bis-Tris) of wild-type fly mitochondria solubilised with 4 mg digitonin per mg protein; Coomassie stain and in-gel activity of CI and CIV.

With complex V (D. melanogaster), monomer, the stoichiometry N in assay [1] and in assay [2] was 2 in each case.
With “mitochondrial respiratory chain complex IV (D. melanogaster)”, the stoichiometry N in assay [3] and in assay [4] was 2 throughout.
